Measurements reported in publication PMC8319299, “PALI1 facilitates DNA and nucleosome binding by PRC2 and triggers an allosteric activation of catalysis”.

Tests used:
PRC2-PALI1 PIR = PRC2-PALI1 PIR (Homo sapiens, UniProt Q15910-2;O75530;Q15022;Q09028;Q96JN0-3 1-751;1-441;1-739;1-425;1058-1250); experiment: fluorescence anisotropy; 50 mM Tris-HCl pH 7.5 (25 C), 100 mM KCl, 2 mM 2-mercaptoethanol, 0.1 mg/mL BSA, 0.05% NP-40; FA at 30 C; nucleosome EMSA with 5% glycerol at 4 C (+5 ng/uL salmon sperm DNA for H2A-Cy5 probes); PALI1 PIR EMSA with 5% glycerol, binding at 30 C; probe 5 nM; conditions: protein: recombinant, tags: His6-MBP (PreScission-cleavable), copies: 1;1;1;1;1, label: 3'-fluorescein; for Kd: hairpin, 46 bp stem
PALI1 PIR = molecular target: T1, PALI1 PIR (Homo sapiens, UniProt Q96JN0-3 1058-1250); experiment: EMSA; 50 mM Tris-HCl pH 7.5 (25 C), 100 mM KCl, 2 mM 2-mercaptoethanol, 0.1 mg/mL BSA, 0.05% NP-40; FA at 30 C; nucleosome EMSA with 5% glycerol at 4 C (+5 ng/uL salmon sperm DNA for H2A-Cy5 probes); PALI1 PIR EMSA with 5% glycerol, binding at 30 C; probe 5 nM; conditions: protein: recombinant; tags: MBP removed by TEV; label: 3'-fluorescein; hairpin, 46 bp stem
T1 sequence: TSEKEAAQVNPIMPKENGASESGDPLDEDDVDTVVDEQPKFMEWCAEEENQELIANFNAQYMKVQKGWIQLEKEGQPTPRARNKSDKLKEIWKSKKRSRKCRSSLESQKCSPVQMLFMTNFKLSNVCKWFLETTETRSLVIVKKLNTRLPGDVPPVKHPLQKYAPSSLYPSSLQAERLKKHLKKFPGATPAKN

[1] = molecular target: PRC2 core (EZH2-EED-SUZ12-RBBP4) (Homo sapiens, UniProt Q15910-2;O75530;Q15022;Q09028 1-751;1-441;1-739;1-425); experiment: fluorescence anisotropy; 50 mM Tris-HCl pH 7.5 (25 C), 100 mM KCl, 2 mM 2-mercaptoethanol, 0.1 mg/mL BSA, 0.05% NP-40; FA at 30 C; nucleosome EMSA with 5% glycerol at 4 C (+5 ng/uL salmon sperm DNA for H2A-Cy5 probes); PALI1 PIR EMSA with 5% glycerol, binding at 30 C; probe 5 nM; conditions: protein: recombinant; tags: His6-MBP (PreScission-cleavable); copies: 1;1;1;1; label: 3'-fluorescein; G4
Sequence of PRC2 core (EZH2-EED-SUZ12-RBBP4) (Q15910 other isoform, or with tags, fused parts or gaps, chain 1 of 4): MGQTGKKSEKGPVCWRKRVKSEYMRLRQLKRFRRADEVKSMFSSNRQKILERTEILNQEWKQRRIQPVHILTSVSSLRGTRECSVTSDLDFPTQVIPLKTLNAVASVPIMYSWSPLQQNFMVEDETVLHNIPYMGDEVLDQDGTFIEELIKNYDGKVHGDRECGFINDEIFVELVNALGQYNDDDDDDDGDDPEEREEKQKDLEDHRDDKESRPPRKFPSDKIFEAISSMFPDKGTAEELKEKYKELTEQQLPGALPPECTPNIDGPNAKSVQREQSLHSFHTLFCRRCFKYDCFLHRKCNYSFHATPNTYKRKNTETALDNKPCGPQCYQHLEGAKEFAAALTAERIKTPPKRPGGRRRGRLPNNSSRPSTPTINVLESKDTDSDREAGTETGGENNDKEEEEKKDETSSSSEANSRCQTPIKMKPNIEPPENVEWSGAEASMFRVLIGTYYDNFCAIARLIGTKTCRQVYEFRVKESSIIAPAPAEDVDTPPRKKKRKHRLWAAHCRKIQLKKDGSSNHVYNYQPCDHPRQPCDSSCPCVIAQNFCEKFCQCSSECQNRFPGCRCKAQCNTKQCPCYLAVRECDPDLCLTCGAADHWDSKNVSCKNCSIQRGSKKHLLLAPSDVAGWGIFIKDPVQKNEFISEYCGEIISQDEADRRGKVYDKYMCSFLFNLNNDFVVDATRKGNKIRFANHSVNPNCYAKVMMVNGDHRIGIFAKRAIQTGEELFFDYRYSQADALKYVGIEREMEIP
Sequence of PRC2 core (EZH2-EED-SUZ12-RBBP4) (O75530 whole entry, chain 2 of 4): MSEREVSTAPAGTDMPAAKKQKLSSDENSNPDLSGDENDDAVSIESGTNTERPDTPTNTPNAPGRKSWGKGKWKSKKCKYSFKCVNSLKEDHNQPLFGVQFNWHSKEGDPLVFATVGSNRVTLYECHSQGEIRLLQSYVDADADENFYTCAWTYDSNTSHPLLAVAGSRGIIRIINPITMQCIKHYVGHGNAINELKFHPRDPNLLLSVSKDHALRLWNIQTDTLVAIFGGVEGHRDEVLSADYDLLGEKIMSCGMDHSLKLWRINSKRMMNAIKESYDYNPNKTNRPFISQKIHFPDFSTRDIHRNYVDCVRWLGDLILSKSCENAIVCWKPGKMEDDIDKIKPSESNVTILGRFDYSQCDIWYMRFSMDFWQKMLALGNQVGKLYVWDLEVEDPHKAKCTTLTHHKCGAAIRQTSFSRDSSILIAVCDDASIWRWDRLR
Sequence of PRC2 core (EZH2-EED-SUZ12-RBBP4) (Q15022 whole entry, chain 3 of 4): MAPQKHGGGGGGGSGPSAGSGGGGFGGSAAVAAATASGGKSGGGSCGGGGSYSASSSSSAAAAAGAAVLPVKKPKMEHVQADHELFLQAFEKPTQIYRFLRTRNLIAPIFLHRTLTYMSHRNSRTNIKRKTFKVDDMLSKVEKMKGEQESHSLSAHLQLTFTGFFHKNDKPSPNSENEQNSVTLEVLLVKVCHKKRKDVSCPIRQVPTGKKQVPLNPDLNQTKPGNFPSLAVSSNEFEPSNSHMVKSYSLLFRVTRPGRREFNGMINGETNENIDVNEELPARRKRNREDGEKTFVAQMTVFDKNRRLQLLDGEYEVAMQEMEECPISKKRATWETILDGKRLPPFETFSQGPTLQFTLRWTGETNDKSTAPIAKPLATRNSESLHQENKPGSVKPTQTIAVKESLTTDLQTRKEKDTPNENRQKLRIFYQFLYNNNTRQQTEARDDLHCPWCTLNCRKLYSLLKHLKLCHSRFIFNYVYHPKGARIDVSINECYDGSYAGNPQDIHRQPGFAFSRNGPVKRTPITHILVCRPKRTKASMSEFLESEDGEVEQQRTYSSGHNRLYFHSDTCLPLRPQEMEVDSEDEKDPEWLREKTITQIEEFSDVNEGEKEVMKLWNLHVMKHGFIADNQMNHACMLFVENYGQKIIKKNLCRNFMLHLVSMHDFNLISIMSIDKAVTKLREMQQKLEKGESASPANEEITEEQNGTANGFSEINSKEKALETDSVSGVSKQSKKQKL
Sequence of PRC2 core (EZH2-EED-SUZ12-RBBP4) (Q09028 whole entry, chain 4 of 4): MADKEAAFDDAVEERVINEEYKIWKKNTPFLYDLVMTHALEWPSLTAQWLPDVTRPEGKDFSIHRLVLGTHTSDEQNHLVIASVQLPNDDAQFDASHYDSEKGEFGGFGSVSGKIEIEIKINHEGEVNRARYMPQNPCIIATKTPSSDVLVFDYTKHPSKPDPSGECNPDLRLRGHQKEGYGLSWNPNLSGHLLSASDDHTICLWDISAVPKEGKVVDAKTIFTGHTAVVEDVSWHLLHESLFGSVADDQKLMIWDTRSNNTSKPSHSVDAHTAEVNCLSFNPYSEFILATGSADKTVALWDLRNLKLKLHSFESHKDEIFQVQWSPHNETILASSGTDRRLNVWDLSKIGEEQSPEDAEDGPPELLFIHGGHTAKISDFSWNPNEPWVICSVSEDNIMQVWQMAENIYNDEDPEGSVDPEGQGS

Sequence of PRC2-PALI1 PIR (Q15910 other isoform, or with tags, fused parts or gaps, chain 1 of 4): as the sequence (Q15910 other isoform, or with tags, fused parts or gaps, chain 1 of 4) above
Sequence of PRC2-PALI1 PIR (O75530 whole entry, chain 2 of 4): as the sequence (O75530 whole entry, chain 2 of 4) above
Sequence of PRC2-PALI1 PIR (Q15022 whole entry, chain 3 of 4): as the sequence (Q15022 whole entry, chain 3 of 4) above
Sequence of PRC2-PALI1 PIR (Q09028 whole entry, chain 4 of 4): as the sequence (Q09028 whole entry, chain 4 of 4) above

B1: CpG46 (structured_DNA)
DNA: GGCGCCCTGCCCCGCCTCGCTCTGGCAGAGTGGGGAGCCAGCCGGCGCTAGCCGGCTGGCTCCCCACTCTGCCAGAGCGAGGCGGGGCAGGGCGCC
Kd (PRC2-PALI1 PIR): 155 ± 26 nM
Kd (PALI1 PIR): 2300 ± 300 nM

B2: CpG46 mt (structured_DNA)
DNA: AATATTTCATTTTATTCTATCTCAATGAGACAAAAGATTGATTAATGCTAATTAATCAATCTTTTGTCTCATTGAGATAGAATAAAATGAAATATT
Kd (PRC2-PALI1 PIR): 73.7 ± 10 nM

UUAGGGUUAGGGUUAGGGUUAGGG (structured_RNA) [G4 24 RNA]
binding result (PRC2-PALI1 PIR; G4): binds
binding result [1]: binds
